# In patent publication US20050123900A1:
# Columns and labels:
# [1] = target: gp120 HXB2 (HIV-1 isolate HXB2) (UniProt P04578); test: ELISA, antigen coated directly on plate, soluble Fab titrated, Langmuir fit
# [2] = target: gp120 89.6 (HIV-1 isolate 89.6) (UniProt Q73372); test: as above
# [3] = target: gp120 JR-FL (HIV-1 isolate JR-FL) (UniProt P20871); test: as above
# [4] = target: HIV-1 Env #4-4/116 on pseudotype virus (HIV-1 isolate #4-4/116); test: cell-based or functional assay
# [5] = target: HIV-1 Env Z2Z6 on pseudotype virus (HIV-1 isolate Z2Z6); test: cell-based or functional assay
# [6] = target: HIV-1 Env VI1273 on pseudotype virus (HIV-1 isolate VI1273); test: cell-based or functional assay
# [7] = target: HIV-1 Env TH966 on pseudotype virus (HIV-1 isolate TH966); test: cell-based or functional assay
# [8] = target: HIV-1 Env #9-131 on pseudotype virus (HIV-1 isolate #9-131); test: cell-based or functional assay
# [9] = target: HIV-1 Env MN-TCLA on pseudotype virus (HIV-1 isolate MN-TCLA) (UniProt P05877); test: cell-based or functional assay
# [10] = target: HIV-1 Env #6-4/41 on pseudotype virus (HIV-1 isolate #6-4/41); test: cell-based or functional assay
# [11] = target: HIV-1 Env 89.6 on 293 cells (HIV-1 isolate 89.6) (UniProt Q73372); test: cell-based or functional assay
# [12] = target: HIV-1 Env GX-C44 on pseudotype virus (HIV-1 isolate GX-C44); test: cell-based or functional assay
# [13] = target: HIV-1 Env UG037.8 on 293 cells (HIV-1 isolate UG037.8); test: cell-based or functional assay
# [14] = target: HIV-1 Env US005.11 on 293 cells (HIV-1 isolate US005.11); test: cell-based or functional assay
# [15] = target: HIV-1 Env R2 on pseudotype virus (HIV-1 isolate R2); test: cell-based or functional assay
# [16] = target: HIV-1 Env BR025.9 on 293 cells (HIV-1 isolate BR025.9); test: cell-based or functional assay
# [17] = target: HIV-1 Env VI1399 on pseudotype virus (HIV-1 isolate VI1399); test: cell-based or functional assay
# [18] = target: HIV-1 Env US715.6 on 293 cells (HIV-1 isolate US715.6); test: cell-based or functional assay
# [19] = target: HIV-1 Env NL4-3 on 293 cells (HIV-1 isolate NL4-3); test: cell-based or functional assay
# [20] = target: HIV-1 Env GX-E14 on pseudotype virus (HIV-1 isolate GX-E14); test: cell-based or functional assay
# [21] = target: HIV-1 Env RW020.5 on 293 cells (HIV-1 isolate RW020.5); test: cell-based or functional assay
# [22] = target: HIV-1 Env HT593.1 on 293 cells (HIV-1 isolate HT593.1); test: cell-based or functional assay
# [23] = target: HIV-1 Env BR029.2 on 293 cells (HIV-1 isolate BR029.2); test: cell-based or functional assay
# [24] = target: HIV-1 Env #8-4/49 on pseudotype virus (HIV-1 isolate #8-4/49); test: cell-based or functional assay
# [25] = target: HIV-1 Env UG975.10 on 293 cells (HIV-1 isolate UG975.10); test: cell-based or functional assay
# [26] = target: HIV-1 Env TH022.4 on 293 cells (HIV-1 isolate TH022.4); test: cell-based or functional assay
# [27] = target: sCD4-gp120 JR-FL complex (HIV-1 isolate JR-FL) (UniProt P01730); test: ELISA, sCD4-gp120 complex coated directly on plate, soluble Fab titrated, Langmuir fit
# [28] = target: sCD4-gp120 HXB2 complex (HIV-1 isolate HXB2) (UniProt P04578); test: as above
# [29] = target: sCD4-gp120 89.6 complex (HIV-1 isolate 89.6) (UniProt Q73372); test: as above
# [30] = target: gp120 IIIB (HIV-1 isolate IIIB); test: ELISA, antigen coated directly on plate, soluble Fab titrated, Langmuir fit
# [31] = target: gp140 UG024.2 (HIV-1 isolate UG024.2); test: ELISA, soluble Fab titrated on Env (direct coat or D7324 capture not given)
# [32] = target: gp140 MW965.26 (HIV-1 isolate MW965.26); test: as above
# [33] = target: gp140 ZR001.3 (HIV-1 isolate ZR001.3); test: as above
# [34] = target: gp140 HT593.1 (HIV-1 isolate HT593.1); test: as above
# [35] = target: gp140 89.6 (HIV-1 isolate 89.6) (UniProt Q73372); test: as above
# [36] = target: gp140 BR019.10 (HIV-1 isolate BR019.10); test: as above
# [37] = target: gp140 UG037.8 (HIV-1 isolate UG037.8); test: as above
# [38] = target: gp140 UG975-10 (HIV-1 isolate UG975-10); test: as above
# [39] = target: gp140 R2 (HIV-1 isolate R2); test: as above
# [40] = target: gp140 Bal-L (HIV-1 isolate Bal-L); test: as above
# [41] = target: gp140 CM243 (HIV-1 isolate CM243); test: as above
# [42] = target: gp120 IIIB (HIV-1 isolate IIIB); test: ELISA, soluble Fab titrated on Env (gp120 by the footnote; direct coat or D7324 capture not specified)
# [43] = target: HIV-1 Env P37 on pseudotype virus (HIV-1 isolate P37); test: cell-based or functional assay
# [44] = target: HIV-1 Env VI14004 on pseudotype virus (HIV-1 isolate VI14004); test: cell-based or functional assay
# [45] = target: HIV-1 Env V5 on pseudotype virus (HIV-1 isolate V5); test: cell-based or functional assay
# [46] = target: HIV-1 Env 92RW020.5 on pseudotype virus (HIV-1 isolate 92RW020.5); test: cell-based or functional assay
# [47] = target: sCD4-gp120 IIIB complex (HIV-1 isolate IIIB) (UniProt P01730); test: ELISA, sCD4-gp120 complex coated directly on plate, soluble Fab titrated, Langmuir fit
substance,measurement,setting,value
Fab m14,Kd,[1],0.3 nM
same,Kd,[2],5.4 nM
same,Kd,[3],0.9 nM
same,"M14 Concentration (µg/ml) of Fab, 50% neutralization endpoint, pseudovirus assay",[4],> 100 µg/mL
same,"M14 Concentration (µg/ml) of Fab, 50% neutralization endpoint, pseudovirus assay",[5],50 µg/mL
same,"M14 Concentration (µg/ml) of Fab, 50% neutralization endpoint, pseudovirus assay",[6],3.1 µg/mL
same,"M14 Concentration (µg/ml) of Fab, 50% neutralization endpoint, pseudovirus assay",[7],> 100 µg/mL
same,"M14 Concentration (µg/ml) of Fab, 50% neutralization endpoint, pseudovirus assay",[8],100 µg/mL
same,"M14 Concentration (µg/ml) of Fab, 50% neutralization endpoint, pseudovirus assay",[9],2.24 µg/mL
same,"M14 Concentration (µg/ml) of Fab, 50% neutralization endpoint, pseudovirus assay",[10],> 100 µg/mL
same,"% of fusion inhibition (syncytia count), Fab at 50 µg/ml",[11],100%
same,"M14 Concentration (µg/ml) of Fab, 50% neutralization endpoint, pseudovirus assay",[12],8.8 µg/mL
same,"% of fusion inhibition (syncytia count), Fab at 50 µg/ml",[13],100%
same,"% of fusion inhibition (syncytia count), Fab at 50 µg/ml",[14],95%
same,"M14 Concentration (µg/ml) of Fab, 50% neutralization endpoint, pseudovirus assay",[15],2.24 µg/mL
same,"% of fusion inhibition (syncytia count), Fab at 50 µg/ml",[16],71%
same,"M14 Concentration (µg/ml) of Fab, 50% neutralization endpoint, pseudovirus assay",[17],> 100 µg/mL
same,"% of fusion inhibition (syncytia count), Fab at 50 µg/ml",[18],35%
same,"% of fusion inhibition (syncytia count), Fab at 50 µg/ml",[19],96%
same,"M14 Concentration (µg/ml) of Fab, 50% neutralization endpoint, pseudovirus assay",[20],100 µg/mL
same,"% of fusion inhibition (syncytia count), Fab at 50 µg/ml",[21],31%
same,"% of fusion inhibition (syncytia count), Fab at 50 µg/ml",[22],78%
same,"% of fusion inhibition (syncytia count), Fab at 50 µg/ml",[23],71%
same,"M14 Concentration (µg/ml) of Fab, 50% neutralization endpoint, pseudovirus assay",[24],35.4 µg/mL
same,"% of fusion inhibition (syncytia count), Fab at 50 µg/ml",[25],22%
same,"% of fusion inhibition (syncytia count), Fab at 50 µg/ml",[26],100%
same,Kd,[27],1.2 nM
same,Kd,[28],0.4 nM
same,Kd,[29],7.3 nM
Fab X5,"% of fusion inhibition (syncytia count), Fab at 50 µg/ml",[11],93%
same,"% of fusion inhibition (syncytia count), Fab at 50 µg/ml",[13],34%
same,"% of fusion inhibition (syncytia count), Fab at 50 µg/ml",[14],72%
same,"% of fusion inhibition (syncytia count), Fab at 50 µg/ml",[16],71%
same,"% of fusion inhibition (syncytia count), Fab at 50 µg/ml",[18],28%
same,"% of fusion inhibition (syncytia count), Fab at 50 µg/ml",[19],83%
same,"% of fusion inhibition (syncytia count), Fab at 50 µg/ml",[21],45%
same,"% of fusion inhibition (syncytia count), Fab at 50 µg/ml",[22],27%
same,"% of fusion inhibition (syncytia count), Fab at 50 µg/ml",[23],36%
same,"% of fusion inhibition (syncytia count), Fab at 50 µg/ml",[25],19%
same,"% of fusion inhibition (syncytia count), Fab at 50 µg/ml",[26],43%
Fab m18,Kd,[2],1 nM
same,Kd,[3],0.9 nM
same,Kd,[30],0.08 nM
same,EC50,[31],0.97 nM
same,EC50,[32],0.55 nM
same,EC50,[33],1.07 nM
same,EC50,[34],0.25 nM
same,EC50,[35],1.17 nM
same,EC50,[36],0.77 nM
same,EC50,[37],0.83 nM
same,EC50,[38],0.87 nM
same,EC50,[39],0.13 nM
same,EC50,[40],0.53 nM
same,EC50,[41],116 nM
same,EC50,[42],0.48 nM
same,"M18 Concentration (µg/ml) of Fab, 50% neutralization endpoint, pseudovirus assay",[43],100 µg/mL
same,"M18 Concentration (µg/ml) of Fab, 50% neutralization endpoint, pseudovirus assay",[4],6.3 µg/mL
same,"M18 Concentration (µg/ml) of Fab, 50% neutralization endpoint, pseudovirus assay",[5],25 µg/mL
same,"M18 Concentration (µg/ml) of Fab, 50% neutralization endpoint, pseudovirus assay",[6],25 µg/mL
same,"M18 Concentration (µg/ml) of Fab, 50% neutralization endpoint, pseudovirus assay",[7],> 100 µg/mL
same,"M18 Concentration (µg/ml) of Fab, 50% neutralization endpoint, pseudovirus assay",[8],> 100 µg/mL
same,"M18 Concentration (µg/ml) of Fab, 50% neutralization endpoint, pseudovirus assay",[9],< 1.6 µg/mL
same,"M18 Concentration (µg/ml) of Fab, 50% neutralization endpoint, pseudovirus assay",[10],100 µg/mL
same,"M18 Concentration (µg/ml) of Fab, 50% neutralization endpoint, pseudovirus assay",[44],< 2 µg/mL
same,"% of fusion inhibition (syncytia count), Fab at 50 µg/ml",[11],100%
same,"M18 Concentration (µg/ml) of Fab, 50% neutralization endpoint, pseudovirus assay",[12],> 25 µg/mL
same,"% of fusion inhibition (syncytia count), Fab at 50 µg/ml",[13],34%
same,"% of fusion inhibition (syncytia count), Fab at 50 µg/ml",[14],93%
same,"M18 Concentration (µg/ml) of Fab, 50% neutralization endpoint, pseudovirus assay",[45],< 2 µg/mL
same,"M18 Concentration (µg/ml) of Fab, 50% neutralization endpoint, pseudovirus assay",[15],1.6 µg/mL
same,"% of fusion inhibition (syncytia count), Fab at 50 µg/ml",[16],86%
same,"M18 Concentration (µg/ml) of Fab, 50% neutralization endpoint, pseudovirus assay",[17],> 100 µg/mL
same,"% of fusion inhibition (syncytia count), Fab at 50 µg/ml",[18],97%
same,"% of fusion inhibition (syncytia count), Fab at 50 µg/ml",[19],92%
same,"M18 Concentration (µg/ml) of Fab, 50% neutralization endpoint, pseudovirus assay",[46],3 µg/mL
same,"M18 Concentration (µg/ml) of Fab, 50% neutralization endpoint, pseudovirus assay",[20],> 100 µg/mL
same,"% of fusion inhibition (syncytia count), Fab at 50 µg/ml",[21],25%
same,"% of fusion inhibition (syncytia count), Fab at 50 µg/ml",[22],39%
same,"% of fusion inhibition (syncytia count), Fab at 50 µg/ml",[23],86%
same,"M18 Concentration (µg/ml) of Fab, 50% neutralization endpoint, pseudovirus assay",[24],5 µg/mL
same,"% of fusion inhibition (syncytia count), Fab at 50 µg/ml",[25],56%
same,"% of fusion inhibition (syncytia count), Fab at 50 µg/ml",[26],93%
same,Kd,[27],0.7 nM
same,Kd,[47],0.09 nM
same,Kd,[29],0.9 nM
